Target: GST-NET-Ct^ΔMIM (human) (UniProt P23975)
Test: pull-down

MAD2 (endogenous) (from UniProt Q13257 1-205) (natural protein)
reduction of MAD2 binding against wild type GST-NET-Ct: 70%
